From the RNAGym collection of RNA variant scans (doi:10.1093/molbev/msab373)

B1: Azoarcus group I ribozyme (parent)
chain: GUGCCUUGCGCCGGGAAACCACGCAAGGGAUGGUGUCAAAUUCGGCGAAACCUAAGCGCCCGCCCGGGCGUAUGGCAACGCCGAGCCAAGCUUCGGCGCCUGCGCCGAUGAAGGUGUAGAGACUAGACGGCACCCACCUAAGGCAAACGCUAUGGUGAAGGCAUAGUCCAGGGAGUGGCGAAAGUCACACAAACCGG

Variants of: B1
Test: reverse-splicing fitness (ratio to wild type); higher = more active; in vitro selection; Mg2+ level not given
Method in brief: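 An in vitro group I ribozyme library with randomized positions was T7-transcribed and gel-purified. In triplicate, 10 pmol RNA in EPPS pH 7.5 was reacted with 50 pmoles of a 30-nt RNA substrate for 1 h at 37 °C across several added MgCl2 levels (1–48 mM), then stopped with EDTA. Products were reverse transcribed from a substrate-complementary primer, PCR-amplified and sequenced (HiSeq 4000). Fitness is a variant's read proportion after selection over that before, normalised to wild type.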

| Variant | reverse-splicing fitness |
| --- | --- |
| GUGCCUUGCGCCGGGAAACCACGCAAGGGAUGGUGUCAAAUUCGGCGAAACCUAAGCGCCCGCCCGGGCGUAUGGCAACGCGGAGCCAAGCUUCGGCGCCUGCGCCGAUGAAGGUGUAGAGACUAGACGGCACCCACCUAAGGCGAACGAUAUGGUGAAGGCAUAGUCUAGGGAGUGGCGAAAGUCACACAAACCGG | 0.0106 |
| GUGCCUUGCGCCGGGAAACCACGCAAGGGAUGGUGUCAAAUUCGGCGAAACCUAAGCGCCCGCCCGGGCGUAUGGCAACGCGGAGCCAAGCUUCGGCGCCUGCGCCGAUGAAGGUGUAGAGACUAGACGGCACCCACCUAAGGCGAACGAUAUGGUGAAGGCAUAGUCAAGGGAGUGGCGAAAGUCACACAAACCGG | 0.0117 |
| GUGCCUUGCGCCGGGAAACCACGCAAGGGAUGGUGUCAAAUUCGGCGAAACCUAAGCGCCCGCCCGGGCGUAUGGCAACGCGGAGCCAAGCUUCGGCGCCUGCGCCGAUGAAGGUGUAGAGACUAGACGGCACCCACCUAAGGCGAACGAUAUGGUGAAGGCAUAGUCGAGGGAGUGGCGAAAGUCACACAAACCGG | 0.00861 |
| GUGCCUUGCGCCGGGAAACCACGCAAGGGAUGGUGUCAAAUUCGGCGAAACCUAAGCGCCCGCCCGGGCGUAUGGCAACGCGGAGCCAAGCUUCGGCGCCUGCGCCGAUGAAGGUGUAGAGACUAGACGGCACCCACCUAAGGCCAACGCUAUGGUGAAGGCAUAGUCGAGGGAGCGGCGAAAGUCACACAAACCGG | 0.011 |
| GUGCCUUGCGCCGGGAAACCACGCAAGGGAUGGUGUCAAAUUCGGCGAAACCUAAGCGCCCGCCCGGGCGUAUGGCAACGCGGAGCCAAGCUUCGGCGCCUGCGCCGAUGAAGGUGUAGAGACUAGACGGCACCCACCUAAGGCCAACGCUAUGGUGAAGGCAUAGUCGAGGGAGAGGCGAAAGUCACACAAACCGG | 0.0202 |
| GUGCCUUGCGCCGGGAAACCACGCAAGGGAUGGUGUCAAAUUCGGCGAAACCUAAGCGCCCGCCCGGGCGUAUGGCAACGCGGAGCCAAGCUUCGGCGCCUGCGCCGAUGAAGGUGUAGAGACUAGACGGCACCCACCUAAGGCCAACGCUAUGGUGAAGGCAUAGUCGAGGGAGGGGCGAAAGUCACACAAACCGG | 0.0041 |
| GUGCCUUGCGCCGGGAAACCACGCAAGGGAUGGUGUCAAAUUCGGCGAAACCUAAGCGCCCGCCCGGGCGUAUGGCAACGCGGAGCCAAGCUUCGGCGCCUGCGCCGAUGAAGGUGUAGAGACUAGACGGCACCCACCUAAGGCGAACGAUAUGGUGAAGGCAUAGUCUAGGGAGAGGCGAAAGUCACACAAACCGG | 0.0137 |
| GUGCCUUGCGCCGGGAAACCACGCAAGGGAUGGUGUCAAAUUCGGCGAAACCUAAGCGCCCGCCCGGGCGUAUGGCAACGCGGAGCCAAGCUUCGGCGCCUGCGCCGAUGAAGGUGUAGAGACUAGACGGCACCCACCUAAGGCGAACGAUAUGGUGAAGGCAUAGUCUAGGGAGCGGCGAAAGUCACACAAACCGG | 0.0141 |
| GUGCCUUGCGCCGGGAAACCACGCAAGGGAUGGUGUCAAAUUCGGCGAAACCUAAGCGCCCGCCCGGGCGUAUGGCAACGCGGAGCCAAGCUUCGGCGCCUGCGCCGAUGAAGGUGUAGAGACUAGACGGCACCCACCUAAGGCGAACGAUAUGGUGAAGGCAUAGUCUAGGGAGGGGCGAAAGUCACACAAACCGG | 0.00552 |
| GUGCCUUGCGCCGGGAAACCACGCAAGGGAUGGUGUCAAAUUCGGCGAAACCUAAGCGCCCGCCCGGGCGUAUGGCAACGCGGAGCCAAGCUUCGGCGCCUGCGCCGAUGAAGGUGUAGAGACUAGACGGCACCCACCUAAGGCCAACGCUAUGGUGAAGGCAUAGUCUAGGGAGAGGCGAAAGUCACACAAACCGG | 0.0128 |
| GUGCCUUGCGCCGGGAAACCACGCAAGGGAUGGUGUCAAAUUCGGCGAAACCUAAGCGCCCGCCCGGGCGUAUGGCAACGCGGAGCCAAGCUUCGGCGCCUGCGCCGAUGAAGGUGUAGAGACUAGACGGCACCCACCUAAGGCCAACGCUAUGGUGAAGGCAUAGUCUAGGGAGGGGCGAAAGUCACACAAACCGG | 0.00465 |
| GUGCCUUGCGCCGGGAAACCACGCAAGGGAUGGUGUCAAAUUCGGCGAAACCUAAGCGCCCGCCCGGGCGUAUGGCAACGCGGAGCCAAGCUUCGGCGCCUGCGCCGAUGAAGGUGUAGAGACUAGACGGCACCCACCUAAGGCCAACGCUAUGGUGAAGGCAUAGUCUAGGGAGCGGCGAAAGUCACACAAACCGG | 0.0115 |
| GUGCCUUGCGCCGGGAAACCACGCAAGGGAUGGUGUCAAAUUCGGCGAAACCUAAGCGCCCGCCCGGGCGUAUGGCAACGCGGAGCCAAGCUUCGGCGCCUGCGCCGAUGAAGGUGUAGAGACUAGACGGCACCCACCUAAGGCGAACGGUAUGGUGAAGGCAUAGUCAAGGGAGUGGCGAAAGUCACACAAACCGG | 0.00944 |
| GUGCCUUGCGCCGGGAAACCACGCAAGGGAUGGUGUCAAAUUCGGCGAAACCUAAGCGCCCGCCCGGGCGUAUGGCAACGCGGAGCCAAGCUUCGGCGCCUGCGCCGAUGAAGGUGUAGAGACUAGACGGCACCCACCUAAGGCGAACGAUAUGGUGAAGGCAUAGUCGAGGGAGGGGCGAAAGUCACACAAACCGG | 0.00515 |
| GUGCCUUGCGCCGGGAAACCACGCAAGGGAUGGUGUCAAAUUCGGCGAAACCUAAGCGCCCGCCCGGGCGUAUGGCAACGCGGAGCCAAGCUUCGGCGCCUGCGCCGAUGAAGGUGUAGAGACUAGACGGCACCCACCUAAGGCGAACGAUAUGGUGAAGGCAUAGUCGAGGGAGAGGCGAAAGUCACACAAACCGG | 0.017 |
| GUGCCUUGCGCCGGGAAACCACGCAAGGGAUGGUGUCAAAUUCGGCGAAACCUAAGCGCCCGCCCGGGCGUAUGGCAACGCGGAGCCAAGCUUCGGCGCCUGCGCCGAUGAAGGUGUAGAGACUAGACGGCACCCACCUAAGGCGAACGAUAUGGUGAAGGCAUAGUCGAGGGAGCGGCGAAAGUCACACAAACCGG | 0.0286 |
| GUGCCUUGCGCCGGGAAACCACGCAAGGGAUGGUGUCAAAUUCGGCGAAACCUAAGCGCCCGCCCGGGCGUAUGGCAACGCGGAGCCAAGCUUCGGCGCCUGCGCCGAUGAAGGUGUAGAGACUAGACGGCACCCACCUAAGGCCAACGCUAUGGUGAAGGCAUAGUCCAGGGAGGGGCGAAAGUCACACAAACCGG | 0.153 |
| GUGCCUUGCGCCGGGAAACCACGCAAGGGAUGGUGUCAAAUUCGGCGAAACCUAAGCGCCCGCCCGGGCGUAUGGCAACGCGGAGCCAAGCUUCGGCGCCUGCGCCGAUGAAGGUGUAGAGACUAGACGGCACCCACCUAAGGCCAACGCUAUGGUGAAGGCAUAGUCCAGGGAGAGGCGAAAGUCACACAAACCGG | 0.378 |
| GUGCCUUGCGCCGGGAAACCACGCAAGGGAUGGUGUCAAAUUCGGCGAAACCUAAGCGCCCGCCCGGGCGUAUGGCAACGCGGAGCCAAGCUUCGGCGCCUGCGCCGAUGAAGGUGUAGAGACUAGACGGCACCCACCUAAGGCCAACGCUAUGGUGAAGGCAUAGUCCAGGGAGCGGCGAAAGUCACACAAACCGG | 0.35 |
| GUGCCUUGCGCCGGGAAACCACGCAAGGGAUGGUGUCAAAUUCGGCGAAACCUAAGCGCCCGCCCGGGCGUAUGGCAACGCGGAGCCAAGCUUCGGCGCCUGCGCCGAUGAAGGUGUAGAGACUAGACGGCACCCACCUAAGGCGAACGAUAUGGUGAAGGCAUAGUCAAGGGAGAGGCGAAAGUCACACAAACCGG | 0.0204 |
| GUGCCUUGCGCCGGGAAACCACGCAAGGGAUGGUGUCAAAUUCGGCGAAACCUAAGCGCCCGCCCGGGCGUAUGGCAACGCGGAGCCAAGCUUCGGCGCCUGCGCCGAUGAAGGUGUAGAGACUAGACGGCACCCACCUAAGGCGAACGAUAUGGUGAAGGCAUAGUCAAGGGAGCGGCGAAAGUCACACAAACCGG | 0.0238 |
| GUGCCUUGCGCCGGGAAACCACGCAAGGGAUGGUGUCAAAUUCGGCGAAACCUAAGCGCCCGCCCGGGCGUAUGGCAACGCGGAGCCAAGCUUCGGCGCCUGCGCCGAUGAAGGUGUAGAGACUAGACGGCACCCACCUAAGGCGAACGAUAUGGUGAAGGCAUAGUCAAGGGAGGGGCGAAAGUCACACAAACCGG | 0.00731 |
| GUGCCUUGCGCCGGGAAACCACGCAAGGGAUGGUGUCAAAUUCGGCGAAACCUAAGCGCCCGCCCGGGCGUAUGGCAACGCGGAGCCAAGCUUCGGCGCCUGCGCCGAUGAAGGUGUAGAGACUAGACGGCACCCACCUAAGGCGAACGAUAUGGUGAAGGCAUAGUCCAGGGAGUGGCGAAAGUCACACAAACCGG | 0.0607 |
| GUGCCUUGCGCCGGGAAACCACGCAAGGGAUGGUGUCAAAUUCGGCGAAACCUAAGCGCCCGCCCGGGCGUAUGGCAACGCGGAGCCAAGCUUCGGCGCCUGCGCCGAUGAAGGUGUAGAGACUAGACGGCACCCACCUAAGGCGAACGGUAUGGUGAAGGCAUAGUCCAGGGAGUGGCGAAAGUCACACAAACCGG | 0.05 |
| GUGCCUUGCGCCGGGAAACCACGCAAGGGAUGGUGUCAAAUUCGGCGAAACCUAAGCGCCCGCCCGGGCGUAUGGCAACGCGGAGCCAAGCUUCGGCGCCUGCGCCGAUGAAGGUGUAGAGACUAGACGGCACCCACCUAAGGCCAACGCUAUGGUGAAGGCAUAGUCUAGGGAGUGGCGAAAGUCACACAAACCGG | 0.016 |
| GUGCCUUGCGCCGGGAAACCACGCAAGGGAUGGUGUCAAAUUCGGCGAAACCUAAGCGCCCGCCCGGGCGUAUGGCAACGCGGAGCCAAGCUUCGGCGCCUGCGCCGAUGAAGGUGUAGAGACUAGACGGCACCCACCUAAGGCGAACGGUAUGGUGAAGGCAUAGUCAAGGGAGAGGCGAAAGUCACACAAACCGG | 0.0146 |
| GUGCCUUGCGCCGGGAAACCACGCAAGGGAUGGUGUCAAAUUCGGCGAAACCUAAGCGCCCGCCCGGGCGUAUGGCAACGCGGAGCCAAGCUUCGGCGCCUGCGCCGAUGAAGGUGUAGAGACUAGACGGCACCCACCUAAGGCGAACGAUAUGGUGAAGGCAUAGUCCAGGGAGAGGCGAAAGUCACACAAACCGG | 0.0509 |
| GUGCCUUGCGCCGGGAAACCACGCAAGGGAUGGUGUCAAAUUCGGCGAAACCUAAGCGCCCGCCCGGGCGUAUGGCAACGCGGAGCCAAGCUUCGGCGCCUGCGCCGAUGAAGGUGUAGAGACUAGACGGCACCCACCUAAGGCGAACGAUAUGGUGAAGGCAUAGUCCAGGGAGCGGCGAAAGUCACACAAACCGG | 0.0688 |
| GUGCCUUGCGCCGGGAAACCACGCAAGGGAUGGUGUCAAAUUCGGCGAAACCUAAGCGCCCGCCCGGGCGUAUGGCAACGCGGAGCCAAGCUUCGGCGCCUGCGCCGAUGAAGGUGUAGAGACUAGACGGCACCCACCUAAGGCGAACGAUAUGGUGAAGGCAUAGUCCAGGGAGGGGCGAAAGUCACACAAACCGG | 0.0244 |
| GUGCCUUGCGCCGGGAAACCACGCAAGGGAUGGUGUCAAAUUCGGCGAAACCUAAGCGCCCGCCCGGGCGUAUGGCAACGCGGAGCCAAGCUUCGGCGCCUGCGCCGAUGAAGGUGUAGAGACUAGACGGCACCCACCUAAGGCGAACGCUAUGGUGAAGGCAUAGUCCAGGGAGUGGCGAAAGUCACACAAACCGG | 0.458 |
